Assay results: patent publication US20200079833A1 (AstraZeneca / MedImmune, published 2020)
Starred links: 1 amine or outer side, 2 acyl side, 3 side chain; linkers in the order of their positions; H or OH if unused. Non-standard residues stand in square brackets, D forms with d. Groups on a side chain read outwards from the residue. Primed or numbered codes have the meaning given here. No end group written: not given here. *: point of attachment. γGlu = O=C(O)[C@H](CCC(=O)[*:2])N[*:1]; Palmitoyl = CCCCCCCCCCCCCCCC(=O)*; αMeF = C[C@](N)(Cc1ccccc1)C(=O)O; αMeK = C[C@](N)(CCCCN)C(=O)O; Lauroyl = CCCCCCCCCCCC(=O)*; αMeS = C[C@](N)(CO)C(=O)O; PEG2′ = not defined here; Aib = CC(C)(N)C(=O)O

T1: glucose-dependent insulinotropic peptide (gastric inhibitory polypeptide) receptor (GIPR), primary cAMP assay (human, UniProt P48546 22-466)
T1 sequence (looked up): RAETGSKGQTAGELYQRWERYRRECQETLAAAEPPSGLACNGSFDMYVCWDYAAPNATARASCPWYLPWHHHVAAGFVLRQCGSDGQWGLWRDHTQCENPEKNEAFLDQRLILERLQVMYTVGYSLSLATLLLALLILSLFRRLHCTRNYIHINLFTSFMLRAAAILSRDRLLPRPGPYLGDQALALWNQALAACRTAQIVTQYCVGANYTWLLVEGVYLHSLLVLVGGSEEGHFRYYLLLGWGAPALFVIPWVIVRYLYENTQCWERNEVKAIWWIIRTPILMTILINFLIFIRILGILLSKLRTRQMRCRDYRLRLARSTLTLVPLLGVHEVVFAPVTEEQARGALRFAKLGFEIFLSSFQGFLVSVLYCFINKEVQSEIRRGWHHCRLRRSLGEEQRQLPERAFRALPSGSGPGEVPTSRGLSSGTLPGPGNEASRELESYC

T2: GLP-1R in the INS1e assay (UniProt P32301 22-463, limits assumed)
T2 sequence (looked up): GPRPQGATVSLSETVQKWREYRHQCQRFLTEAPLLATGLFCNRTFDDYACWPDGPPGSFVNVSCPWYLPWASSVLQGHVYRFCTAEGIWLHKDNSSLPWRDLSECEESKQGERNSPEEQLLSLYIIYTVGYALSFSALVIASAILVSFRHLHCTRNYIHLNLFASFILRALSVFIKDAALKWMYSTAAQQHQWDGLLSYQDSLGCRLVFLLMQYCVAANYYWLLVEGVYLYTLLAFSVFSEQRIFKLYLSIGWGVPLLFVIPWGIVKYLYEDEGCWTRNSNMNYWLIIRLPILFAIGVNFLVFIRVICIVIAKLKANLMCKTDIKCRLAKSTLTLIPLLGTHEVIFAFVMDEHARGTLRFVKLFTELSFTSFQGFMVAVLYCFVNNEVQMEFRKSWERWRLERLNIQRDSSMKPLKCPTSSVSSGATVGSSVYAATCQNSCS

B1: SEQ ID NO: 249 (peptide)
peptide: H[Aib]EGS[αMeF]TSDVSK([PEG2′-PEG2′-γGlu-Lauroyl])YLEGEAA[αMeK]EFIK([PEG2′-PEG2′-γGlu-Lauroyl])WVVEGG-NH2
B2: SEQ ID NO: 250 (peptide)
peptide: H[Aib]EGS[αMeF]TSDVSK([PEG2′-PEG2′-γGlu-Palmitoyl])FLEGEAA[αMeK]EFIK([PEG2′-PEG2′-γGlu-Palmitoyl])FVVEGG-NH2
B3: SEQ ID NO: 256 (peptide)
peptide: H[Aib]EGS[αMeF]TSDK([PEG2′-PEG2′-γGlu-Lauroyl])SSYLEGEAA[αMeK]EFIK([PEG2′-PEG2′-γGlu-Lauroyl])WVVEGG-NH2
B4: SEQ ID NO: 251 (peptide)
peptide: H[Aib]EGS[αMeF]TSDVSK([PEG2′-PEG2′-γGlu-Palmitoyl])YLEGEAA[αMeK]EFIK([PEG2′-PEG2′-γGlu-Palmitoyl])WVVEGG-NH2
B5: SEQ ID NO: 248 (peptide)
peptide: H[Aib]EGS[αMeF]TSDVSK([PEG2′-PEG2′-γGlu-Lauroyl])FLEGEAA[αMeK]EFIK([PEG2′-PEG2′-γGlu-Lauroyl])FVVEGG-NH2
B6: SEQ ID NO: 241 (peptide)
peptide: H[Aib]EGS[αMeF]TSDVSK([PEG2′-PEG2′-γGlu-Lauroyl])FLEGEAAEEFIK([PEG2′-PEG2′-γGlu-Lauroyl])FVVEGG-NH2
B7: SEQ ID NO: 257 (peptide)
peptide: H[Aib]EGS[αMeF]TSDK([PEG2′-PEG2′-γGlu-Lauroyl])SSYLEGEAA[αMeK]EFIAK([PEG2′-PEG2′-γGlu-Lauroyl])VVEGG-NH2
B8: SEQ ID NO: 263 (peptide)
peptide: H[Aib]EGS[αMeF]TSDV[αMeS]SK([PEG2′-PEG2′-γGlu-Lauroyl])LEGEAA[αMeK]EFIAK([PEG2′-PEG2′-γGlu-Lauroyl])VVEGG-NH2
B9: SEQ ID NO: 262 (peptide)
peptide: H[Aib]EGS[αMeF]TSDV[αMeS]SK([PEG2′-PEG2′-γGlu-Lauroyl])LEGEAA[αMeK]EFIK([PEG2′-PEG2′-γGlu-Lauroyl])WVVEGG-NH2
B10: SEQ ID NO: 252 (peptide)
peptide: H[Aib]EGS[αMeF]TSDVSK([PEG2′-PEG2′-γGlu-Lauroyl])YLEGEAA[αMeK]EFIAK([PEG2′-PEG2′-γGlu-Lauroyl])VVEGG-NH2
B11: SEQ ID NO: 247 (peptide)
peptide: H[Aib]EGS[αMeF]TSDVSK([PEG2′-PEG2′-γGlu-Palmitoyl])FLEGEAAEEFIK([PEG2′-PEG2′-γGlu-Palmitoyl])FVVEGG-NH2
B12: SEQ ID NO: 246 (peptide)
peptide: H[Aib]EGS[αMeF]TSDVSK([PEG2′-PEG2′-γGlu-Palmitoyl])YLEGEAAEEFIK([PEG2′-PEG2′-γGlu-Palmitoyl])WVVEGG-NH2
B13: SEQ ID NO: 253 (peptide)
peptide: H[Aib]EGS[αMeF]TSDVSK([PEG2′-PEG2′-γGlu-Lauroyl])YLEGEAA[αMeK]EFIAWK([PEG2′-PEG2′-γGlu-Lauroyl])VEGG-NH2
B14: SEQ ID NO: 240 (peptide)
peptide: H[Aib]EGS[αMeF]TSDVSK([PEG2′-PEG2′-γGlu-Lauroyl])YLEGEAAEEFIK([PEG2′-PEG2′-γGlu-Lauroyl])WVVEGG-NH2

Target: glucagon receptor (GCGR), primary cAMP assay (human, UniProt P47871 26-477)
Sequence (P47871 26-477): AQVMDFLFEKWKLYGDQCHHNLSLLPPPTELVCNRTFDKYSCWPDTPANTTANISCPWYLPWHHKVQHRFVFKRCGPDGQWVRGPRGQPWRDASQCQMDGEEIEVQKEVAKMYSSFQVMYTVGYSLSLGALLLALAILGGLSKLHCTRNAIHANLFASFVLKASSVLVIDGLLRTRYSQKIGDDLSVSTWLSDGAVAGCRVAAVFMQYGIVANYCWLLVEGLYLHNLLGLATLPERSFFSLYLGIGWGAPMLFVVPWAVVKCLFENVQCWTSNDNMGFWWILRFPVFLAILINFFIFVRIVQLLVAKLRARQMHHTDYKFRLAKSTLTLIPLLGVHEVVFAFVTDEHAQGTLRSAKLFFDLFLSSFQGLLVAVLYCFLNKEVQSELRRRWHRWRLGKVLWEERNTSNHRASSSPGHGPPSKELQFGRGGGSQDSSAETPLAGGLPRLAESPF
Assay: cell-based or functional assay

Row | Primary assay EC50 (cAMP), n1 [nM] | Primary assay EC50 (cAMP), n2 [nM] | Binder
1 | 22.1 | 22.1 | B1
2 | 21.6 | 21.6 | B2
3 | 22.2 | 22.2 | B3
4 | 21.3 | 21.3 | B4
5 | 22.4 | 22.4 | B5
6 | 22.5 | 22.5 | B6
7 | 22.8 | 22.8 | B7
8 | 21.5 | 21.5 | B8
9 | 22.5 | 22.5 | B9
10 | 22.7 | 22.7 | B10
11 | 21.6 | 21.6 | B11
12 | 21.4 | 21.4 | B12
13 | 22.3 | 22.3 | B13
14 | 22.2 | 22.2 | B14

Target: GLP-1 receptor (GLP-1R), primary cAMP assay (human, UniProt P43220 24-463)
Assay: cell-based or functional assay

Row | Primary assay EC50 (cAMP) Mean [nM] | Primary assay EC50 (cAMP), n1 [nM] | Primary assay EC50 (cAMP), n2 [nM] | Binder
15 | 0.0055 | 0.00447 | 0.00649 | B1
16 | 0.0451 | 0.0292 | 0.061 | B2
17 | 0.0075 | 0.00946 | 0.00557 | B3
18 | 0.0311 | 0.016 | 0.0462 | B4
19 | 0.005 | 0.00377 | 0.0062 | B5
20 | 0.0096 | 0.00755 | 0.0116 | B6
21 | 0.0084 | 0.00436 | 0.0124 | B7
22 | 0.0012 | 0.000998 | 0.00145 | B8
23 | 0.0054 | 0.00673 | 0.00414 | B9
24 | 0.0025 | 0.00288 | 0.00217 | B10
25 | 1.67 | 1.31 | 2.02 | B11
26 | 1.4 | 0.999 | 1.8 | B12
27 | 0.0206 | 0.0234 | 0.0177 | B13
28 | 0.014 | 0.0109 | 0.0171 | B14

Target: T1, glucose-dependent insulinotropic …
Assay: cell-based or functional assay

Row | Primary assay EC50 (cAMP), n1 [nM] | Primary assay EC50 (cAMP), n2 [nM] | Binder
29 | 22.1 | 22.1 | B1
30 | 21.6 | 21.6 | B2
31 | 22.2 | 22.2 | B3
32 | 21.3 | 21.3 | B4
33 | 22.4 | 22.4 | B5
34 | 22.5 | 22.5 | B6
35 | 22.8 | 22.8 | B7
36 | 21.5 | 21.5 | B8
37 | 22.5 | 22.5 | B9
38 | 22.7 | 22.7 | B10
39 | 21.6 | 21.6 | B11
40 | 21.4 | 21.4 | B12
41 | 22.3 | 22.3 | B13
42 | 22.2 | 22.2 | B14

Target: T2, GLP-1R in the INS1e assay
Assay: cell-based or functional assay

Row | INS1e assay EC50 (cAMP) Mean [nM] | INS1e assay EC50 (cAMP) n1 [nM] | INS1e assay EC50 (cAMP) n2 [nM] | Binder
43 | 0.566 | 0.721 | 0.41 | B1
44 | 38.1 | 36.7 | 39.4 | B2
45 | 1.29 | 1.25 | 1.34 | B3
46 | 7.16 | 6.47 | 7.85 | B4
47 | 0.403 | 0.337 | 0.468 | B5
48 | 6.28 | 5.84 | 6.71 | B6
49 | 0.577 | 0.812 | 0.342 | B7
50 | 0.132 | 0.12 | 0.144 | B8
51 | 0.552 | 0.7 | 0.403 | B9
52 | 0.175 | 0.184 | 0.166 | B10
53 | 72.1 | 72.1 | 72.1 | B11
54 | 71.3 | 71.3 | 71.3 | B12
55 | 2.11 | 2.08 | 2.14 | B13
56 | 6.02 | 6.86 | 5.17 | B14
